The assay concerns the target T1, His-yTBP (yeast TATA-box-binding protein) (S. cerevisiae, UniProt P13393 1-240).
T1 sequence (looked up): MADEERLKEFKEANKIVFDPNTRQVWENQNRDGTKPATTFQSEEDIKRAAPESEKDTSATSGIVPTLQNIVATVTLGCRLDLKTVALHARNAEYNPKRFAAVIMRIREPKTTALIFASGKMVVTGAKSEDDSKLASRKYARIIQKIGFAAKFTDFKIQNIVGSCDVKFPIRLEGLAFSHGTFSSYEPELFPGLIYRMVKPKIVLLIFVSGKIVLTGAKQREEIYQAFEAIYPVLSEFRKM
Description: pull-down; His-yTBP held on Ni-NTA agarose beads (from soluble E. coli lysate, washed three times); equal amounts of purified GST-MBF1 proteins or purified GST incubated with the beads for 4 h at 4 °C; beads washed three times; detected by immunoblot (Wes) with anti-His and anti-GST antibodies. The note with it: both partners purified. On the technique in general: A western blot detects proteins with antibodies after separation by electrophoresis.

B1: GST-yMBF1 (Saccharomyces cerevisiae multiprotein-bridging factor 1) (natural protein, S. cerevisiae, UniProt O14467 1-151, looked up)
chain: MSDWDTNTIIGSRARAGGSGPRANVARSQGQINAARRQGLVVSVDKKYGSTNTRGDNEGQRLTKVDRETDIVKPKKLDPNVGRAISRARTDKKMSQKDLATKINEKPTVVNDYEAARAIPNQQVLSKLERALGVKLRGNNIGSPLGAPKKK
notes: MBF1 of Saccharomyces cerevisiae (amino acids 1 to 151 by the domain limits in the methods); source: E. coli BL21, purified (glutathione agarose beads, eluted)
As to B1, the binding result was “binds”.
